In the test the target is Gal4 DNA-Binding Domain (DBD) linked to the LOV domain of WC-1 (N. crassa) (UniProt Q01371). Put plainly: two-hybrid; Y2H-like optogenetic switch (FUN-LOV variants) in S. cerevisiae BY4741 or 59A-EC1118; genome-integrated luciferase reporter under P_GAL1 or P_5XGAL1; constant blue light or a single 2-h blue-light pulse (466 nm, 24 umol m^-2 s^-1) compared with constant darkness; 25°C, SC medium with 1 mM luciferin.
Sequence of UniProt Q01371 (Q01371 381-508): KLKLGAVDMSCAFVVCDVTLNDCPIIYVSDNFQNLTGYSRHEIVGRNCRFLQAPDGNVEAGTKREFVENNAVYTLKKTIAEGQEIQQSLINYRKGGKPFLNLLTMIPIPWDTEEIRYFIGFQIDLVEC

In turn, “Gal4-activation domain (AD) tethered to the LOV domain of VVD (from UniProt Q9C3Y6 1-186) (domain or fragment)” yielded a fold induction of luciferase expression (blue-light pulse / darkness), 59A-EC1118 strain, P 5XGAL1-Luc of 982 fold.
